For data set [1], the target named is T1, MpAgo, recombinant purified (Marinitoga piezophila, UniProt H2J4R4 1-639).
T1 construct: Argonaute, Marinitoga piezophila, expressed from pET-6His-MBP-MpAgo (Addgene, number not given); His-MBP tag removed with HRV 3C protease; source: E. coli BL21(DE3)pLysS, purified (CoHis resin, tag removal, heparin, Superdex 200)
T1 sequence (looked up): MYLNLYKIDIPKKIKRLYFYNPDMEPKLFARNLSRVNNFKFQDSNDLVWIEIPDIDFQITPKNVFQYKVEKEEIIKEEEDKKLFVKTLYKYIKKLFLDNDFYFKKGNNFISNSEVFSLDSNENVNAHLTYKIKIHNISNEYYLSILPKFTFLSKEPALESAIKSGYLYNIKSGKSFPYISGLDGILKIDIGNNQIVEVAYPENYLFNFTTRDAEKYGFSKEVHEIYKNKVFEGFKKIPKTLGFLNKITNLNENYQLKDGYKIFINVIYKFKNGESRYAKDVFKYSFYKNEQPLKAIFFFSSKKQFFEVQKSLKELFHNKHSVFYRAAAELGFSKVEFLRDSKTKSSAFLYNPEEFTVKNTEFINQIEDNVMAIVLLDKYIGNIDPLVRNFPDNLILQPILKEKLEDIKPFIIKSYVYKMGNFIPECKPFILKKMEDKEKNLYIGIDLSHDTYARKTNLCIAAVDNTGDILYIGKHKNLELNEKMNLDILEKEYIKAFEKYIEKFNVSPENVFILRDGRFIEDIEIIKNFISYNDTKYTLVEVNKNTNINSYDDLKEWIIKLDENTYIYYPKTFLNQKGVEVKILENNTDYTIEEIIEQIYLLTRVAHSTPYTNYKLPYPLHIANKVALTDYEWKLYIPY
Nature of the data set: pull-down; bait MpCAPP-MBP (20 µg) pre-bound to amylose resin and washed; one prey protein (20 µg) added in 200 µl; 25 mM HEPES pH 7.5, 100 mM NaCl, 50 mM KCl, 3 mM MgCl2, 5% glycerol, 0.5 mM TCEP, 0.1% IGEPAL CA-630; 4 °C, 45 min; Coomassie-stained SDS-PAGE. The settings on record: both partners purified.

Data set [2] deals with the molecule itself. Nature of the data set: SEC; MpCAPP-MBP on Superdex 200 10/300.

B1: MpCAPP with C-terminal MBP fusion (MpCAPP-MBP), recombinant (enzyme, Marinitoga piezophila, UniProt H2J4R1 1-546, looked up)
chain: MNFKELAFKAEEDFDFEKAIEYYKKAFNELTINDDSLIRYANLLFDFQKFEEAEPIFEKIVSEINDSEYMSKLAIIYEENNKFEKALKIYKELGIESKVKELSDKIELKAPSQNAIKRFMTLFSGREDVFSIQYEGGYRPIRRPLNFHDIKDHFSGKKTLGIYLLKKNDTVKFAAYDIDIKKHYLNREDKFVYEENSKKVAKRLSRELNLENIIHYFEFTGNRGYHIWIFFDIPVSAYKIKYIMEKILDRIELEEGIDVEIFPKQTSLNGGLGNLIKVPLGVHKKTGKKCLFVDNDFNVIENQIEFLNNIKENKATEIDKLFREIFNENDYDDFNVTYKKRTTSSKNSASKKIKSSIRKTLPKSNKNIFTQMIEGCHILKQINEKIEKEAYITEEEEMIFIKSLANLENSKKFIEMKLSQTINFSKKRIDMIIKQSLGVPITCEEIRKIILNKDISLSLENCTCKFQGNYNSPYAIVENIEEMFLDKIDINDIAKKIVEKNAEKFEIEKEIKNLKRMIAKKMGDSKELRTEIGTIKRFGDDIEIIL
notes: MpCAPP, Marinitoga piezophila, Marpi_0402 / WP_014295918.1; the MBP fusion has a size of ~108 kDa; Codon-optimised gene in Supplementary Note 4; cloning details in Supplementary Data 3; also called MpCAPP WT; CAPP WT (C-terminal MBP); source: E. coli BL21 (DE3), purified (cobalt NTA, amylose resin); not shown: MBP, C-terminal, kept
Consider B1, for which the binding result in data set [1] and in data set [2] was “binds” throughout.

For the origin of these results see PMC8211822, “CRISPR-Associated Primase-Polymerases are implicated in prokaryotic CRISPR-Cas adaptation” (Nature Communications, 2021).
